B1: NIgG4E1A1(G4S)3 (Fc fusion)
chain 1: DVQLQESGGGLVQAGGSLRLSCLASGRTFTTTSGYNMGWFRQAPGKEREFVAGIKWVSGSNRAYAESVKGRFTISRDNAKNTVYLQMNSLKPEDTAVYYCAAATGQSYVPIREYEYVYWGQGTQVTVSGGGGSGGGGSGGGGSGPPCPPCPAPEFLGGPSVFLFPPKPKDTLMISRTPEVTCVVVDVSQEDPEVQFNWYVDGVEVHNAKTKPREEQFNSTYRVVSVLTVLHQDWLNGKEYKCKVSNKGLPSSIEKTISKAKGQPREPQVYTLPPCQEEMTKNQVSLWCLVKGFYPSDIAVEWESNGQPENNYKTTPPVLDSDGSFFLYSRLTVDKSRWQEGNVFSCSVMHEALHNHYTQKSLSLSLGK
chain 2: EVQLLESGGGLVQPGGSLRLSCAASGFTFGNYDMAWVRQAPGKRPEWVSSIDTGGDITHYADSVKGRFTISRDNAKNTLYLQMNSLRPEDTAVYWCATDEEYALGPNEFDYYGQGTLVTVSSGGGGSGGGGSGGGGSGPPCPPCPAPEFLGGPSVFLFPPKPKDTLMISRTPEVTCVVVDVSQEDPEVQFNWYVDGVEVHNAKTKPREEQFNSTYRVVSVLTVLHQDWLNGKEYKCKVSNKGLPSSIEKTISKAKGQPREPQVCTLPPSQEEMTKNQVSLSCAVKGFYPSDIAVEWESNGQPENNYKTTPPVLDSDGSFFLVSRLTVDKSRWQEGNVFSCSVMHEALHNHYTQKSLSLSLGK
B2: NIgG4E1A1(RS) (Fc fusion)
chain 1: DVQLQESGGGLVQAGGSLRLSCLASGRTFTTTSGYNMGWFRQAPGKEREFVAGIKWVSGSNRAYAESVKGRFTISRDNAKNTVYLQMNSLKPEDTAVYYCAAATGQSYVPIREYEYVYWGQGTQVTVSRSGPPCPPCPAPEFLGGPSVFLFPPKPKDTLMISRTPEVTCVVVDVSQEDPEVQFNWYVDGVEVHNAKTKPREEQFNSTYRVVSVLTVLHQDWLNGKEYKCKVSNKGLPSSIEKTISKAKGQPREPQVYTLPPCQEEMTKNQVSLWCLVKGFYPSDIAVEWESNGQPENNYKTTPPVLDSDGSFFLYSRLTVDKSRWQEGNVFSCSVMHEALHNHYTQKSLSLSLGK
chain 2: EVQLLESGGGLVQPGGSLRLSCAASGFTFGNYDMAWVRQAPGKRPEWVSSIDTGGDITHYADSVKGRFTISRDNAKNTLYLQMNSLRPEDTAVYWCATDEEYALGPNEFDYYGQGTLVTVSSRSGPPCPPCPAPEFLGGPSVFLFPPKPKDTLMISRTPEVTCVVVDVSQEDPEVQFNWYVDGVEVHNAKTKPREEQFNSTYRVVSVLTVLHQDWLNGKEYKCKVSNKGLPSSIEKTISKAKGQPREPQVCTLPPSQEEMTKNQVSLSCAVKGFYPSDIAVEWESNGQPENNYKTTPPVLDSDGSFFLVSRLTVDKSRWQEGNVFSCSVMHEALHNHYTQKSLSLSLGK
B3: NIgG4E1A1(G4S)2 (Fc fusion)
chain 1: DVQLQESGGGLVQAGGSLRLSCLASGRTFTTTSGYNMGWFRQAPGKEREFVAGIKWVSGSNRAYAESVKGRFTISRDNAKNTVYLQMNSLKPEDTAVYYCAAATGQSYVPIREYEYVYWGQGTQVTVSGGGGSGGGGSGPPCPPCPAPEFLGGPSVFLFPPKPKDTLMISRTPEVTCVVVDVSQEDPEVQFNWYVDGVEVHNAKTKPREEQFNSTYRVVSVLTVLHQDWLNGKEYKCKVSNKGLPSSIEKTISKAKGQPREPQVYTLPPCQEEMTKNQVSLWCLVKGFYPSDIAVEWESNGQPENNYKTTPPVLDSDGSFFLYSRLTVDKSRWQEGNVFSCSVMHEALHNHYTQKSLSLSLGK
chain 2: EVQLLESGGGLVQPGGSLRLSCAASGFTFGNYDMAWVRQAPGKRPEWVSSIDTGGDITHYADSVKGRFTISRDNAKNTLYLQMNSLRPEDTAVYWCATDEEYALGPNEFDYYGQGTLVTVSSGGGGSGGGGSGPPCPPCPAPEFLGGPSVFLFPPKPKDTLMISRTPEVTCVVVDVSQEDPEVQFNWYVDGVEVHNAKTKPREEQFNSTYRVVSVLTVLHQDWLNGKEYKCKVSNKGLPSSIEKTISKAKGQPREPQVCTLPPSQEEMTKNQVSLSCAVKGFYPSDIAVEWESNGQPENNYKTTPPVLDSDGSFFLVSRLTVDKSRWQEGNVFSCSVMHEALHNHYTQKSLSLSLGK
B4: NIgG4E1A1(G4S)1 (Fc fusion)
chain 1: DVQLQESGGGLVQAGGSLRLSCLASGRTFTTTSGYNMGWFRQAPGKEREFVAGIKWVSGSNRAYAESVKGRFTISRDNAKNTVYLQMNSLKPEDTAVYYCAAATGQSYVPIREYEYVYWGQGTQVTVSGGGGSGPPCPPCPAPEFLGGPSVFLFPPKPKDTLMISRTPEVTCVVVDVSQEDPEVQFNWYVDGVEVHNAKTKPREEQFNSTYRVVSVLTVLHQDWLNGKEYKCKVSNKGLPSSIEKTISKAKGQPREPQVYTLPPCQEEMTKNQVSLWCLVKGFYPSDIAVEWESNGQPENNYKTTPPVLDSDGSFFLYSRLTVDKSRWQEGNVFSCSVMHEALHNHYTQKSLSLSLGK
chain 2: EVQLLESGGGLVQPGGSLRLSCAASGFTFGNYDMAWVRQAPGKRPEWVSSIDTGGDITHYADSVKGRFTISRDNAKNTLYLQMNSLRPEDTAVYWCATDEEYALGPNEFDYYGQGTLVTVSSGGGGSGPPCPPCPAPEFLGGPSVFLFPPKPKDTLMISRTPEVTCVVVDVSQEDPEVQFNWYVDGVEVHNAKTKPREEQFNSTYRVVSVLTVLHQDWLNGKEYKCKVSNKGLPSSIEKTISKAKGQPREPQVCTLPPSQEEMTKNQVSLSCAVKGFYPSDIAVEWESNGQPENNYKTTPPVLDSDGSFFLVSRLTVDKSRWQEGNVFSCSVMHEALHNHYTQKSLSLSLGK
B5: CIgG4D2A1(G4S)2 (Fc fusion)
chain 1: GPPCPPCPAPEFLGGPSVFLFPPKPKDTLMISRTPEVTCVVVDVSQEDPEVQFNWYVDGVEVHNAKTKPREEQFNSTYRVVSVLTVLHQDWLNGKEYKCKVSNKGLPSSIEKTISKAKGQPREPQVYTLPPCQEEMTKNQVSLWCLVKGFYPSDIAVEWESNGQPENNYKTTPPVLDSDGSFFLYSRLTVDKSRWQEGNVFSCSVMHEALHNHYTQKSLSLSLGKGGGGSGGGGSDVQLQESGGGLVEAGGSLRLSCVASGRTFSGWSMGWFRQAPGKEREFVAAISWVGSWIGGTVYSNSVKGRFTISRDNARTTVYLQMNSLKPEDTAVYFCAAANSETPRIFASEYDYWGQGTQVTVS
chain 2: GPPCPPCPAPEFLGGPSVFLFPPKPKDTLMISRTPEVTCVVVDVSQEDPEVQFNWYVDGVEVHNAKTKPREEQFNSTYRVVSVLTVLHQDWLNGKEYKCKVSNKGLPSSIEKTISKAKGQPREPQVCTLPPSQEEMTKNQVSLSCAVKGFYPSDIAVEWESNGQPENNYKTTPPVLDSDGSFFLVSRLTVDKSRWQEGNVFSCSVMHEALHNHYTQKSLSLSLGKGGGGSGGGGSEVQLLESGGGLVQPGGSLRLSCAASGFTFGNYDMAWVRQAPGKRPEWVSSIDTGGDITHYADSVKGRFTISRDNAKNTLYLQMNSLRPEDTAVYWCATDEEYALGPNEFDYYGQGTLVTVSS
B6: CIgG4D2A1(G4S)1 (Fc fusion)
chain 1: GPPCPPCPAPEFLGGPSVFLFPPKPKDTLMISRTPEVTCVVVDVSQEDPEVQFNWYVDGVEVHNAKTKPREEQFNSTYRVVSVLTVLHQDWLNGKEYKCKVSNKGLPSSIEKTISKAKGQPREPQVYTLPPCQEEMTKNQVSLWCLVKGFYPSDIAVEWESNGQPENNYKTTPPVLDSDGSFFLYSRLTVDKSRWQEGNVFSCSVMHEALHNHYTQKSLSLSLGKGGGGSDVQLQESGGGLVEAGGSLRLSCVASGRTFSGWSMGWFRQAPGKEREFVAAISWVGSWIGGTVYSNSVKGRFTISRDNARTTVYLQMNSLKPEDTAVYFCAAANSETPRIFASEYDYWGQGTQVTVS
chain 2: GPPCPPCPAPEFLGGPSVFLFPPKPKDTLMISRTPEVTCVVVDVSQEDPEVQFNWYVDGVEVHNAKTKPREEQFNSTYRVVSVLTVLHQDWLNGKEYKCKVSNKGLPSSIEKTISKAKGQPREPQVCTLPPSQEEMTKNQVSLSCAVKGFYPSDIAVEWESNGQPENNYKTTPPVLDSDGSFFLVSRLTVDKSRWQEGNVFSCSVMHEALHNHYTQKSLSLSLGKGGGGSEVQLLESGGGLVQPGGSLRLSCAASGFTFGNYDMAWVRQAPGKRPEWVSSIDTGGDITHYADSVKGRFTISRDNAKNTLYLQMNSLRPEDTAVYWCATDEEYALGPNEFDYYGQGTLVTVSS
B7: CIgG4D2A1(G4S)3 (Fc fusion)
chain 1: GPPCPPCPAPEFLGGPSVFLFPPKPKDTLMISRTPEVTCVVVDVSQEDPEVQFNWYVDGVEVHNAKTKPREEQFNSTYRVVSVLTVLHQDWLNGKEYKCKVSNKGLPSSIEKTISKAKGQPREPQVYTLPPCQEEMTKNQVSLWCLVKGFYPSDIAVEWESNGQPENNYKTTPPVLDSDGSFFLYSRLTVDKSRWQEGNVFSCSVMHEALHNHYTQKSLSLSLGKGGGGSGGGGSGGGGSDVQLQESGGGLVEAGGSLRLSCVASGRTFSGWSMGWFRQAPGKEREFVAAISWVGSWIGGTVYSNSVKGRFTISRDNARTTVYLQMNSLKPEDTAVYFCAAANSETPRIFASEYDYWGQGTQVTVS
chain 2: GPPCPPCPAPEFLGGPSVFLFPPKPKDTLMISRTPEVTCVVVDVSQEDPEVQFNWYVDGVEVHNAKTKPREEQFNSTYRVVSVLTVLHQDWLNGKEYKCKVSNKGLPSSIEKTISKAKGQPREPQVCTLPPSQEEMTKNQVSLSCAVKGFYPSDIAVEWESNGQPENNYKTTPPVLDSDGSFFLVSRLTVDKSRWQEGNVFSCSVMHEALHNHYTQKSLSLSLGKGGGGSGGGGSGGGGSEVQLLESGGGLVQPGGSLRLSCAASGFTFGNYDMAWVRQAPGKRPEWVSSIDTGGDITHYADSVKGRFTISRDNAKNTLYLQMNSLRPEDTAVYWCATDEEYALGPNEFDYYGQGTLVTVSS
B8: CIgG4E1A1(RS) (Fc fusion)
chain 1: GPPCPPCPAPEFLGGPSVFLFPPKPKDTLMISRTPEVTCVVVDVSQEDPEVQFNWYVDGVEVHNAKTKPREEQFNSTYRVVSVLTVLHQDWLNGKEYKCKVSNKGLPSSIEKTISKAKGQPREPQVYTLPPCQEEMTKNQVSLWCLVKGFYPSDIAVEWESNGQPENNYKTTPPVLDSDGSFFLYSRLTVDKSRWQEGNVFSCSVMHEALHNHYTQKSLSLSLGKRSDVQLQESGGGLVQAGGSLRLSCLASGRTFTTTSGYNMGWFRQAPGKEREFVAGIKWVSGSNRAYAESVKGRFTISRDNAKNTVYLQMNSLKPEDTAVYYCAAATGQSYVPIREYEYVYWGQGTQVTVS
chain 2: GPPCPPCPAPEFLGGPSVFLFPPKPKDTLMISRTPEVTCVVVDVSQEDPEVQFNWYVDGVEVHNAKTKPREEQFNSTYRVVSVLTVLHQDWLNGKEYKCKVSNKGLPSSIEKTISKAKGQPREPQVCTLPPSQEEMTKNQVSLSCAVKGFYPSDIAVEWESNGQPENNYKTTPPVLDSDGSFFLVSRLTVDKSRWQEGNVFSCSVMHEALHNHYTQKSLSLSLGKRSEVQLLESGGGLVQPGGSLRLSCAASGFTFGNYDMAWVRQAPGKRPEWVSSIDTGGDITHYADSVKGRFTISRDNAKNTLYLQMNSLRPEDTAVYWCATDEEYALGPNEFDYYGQGTLVTVSS

mixture of three Der p 2 specific recombinant human IgE clones H10, H12, P4E (human), sequence (P01854 other isoform, or with tags, fused parts or gaps): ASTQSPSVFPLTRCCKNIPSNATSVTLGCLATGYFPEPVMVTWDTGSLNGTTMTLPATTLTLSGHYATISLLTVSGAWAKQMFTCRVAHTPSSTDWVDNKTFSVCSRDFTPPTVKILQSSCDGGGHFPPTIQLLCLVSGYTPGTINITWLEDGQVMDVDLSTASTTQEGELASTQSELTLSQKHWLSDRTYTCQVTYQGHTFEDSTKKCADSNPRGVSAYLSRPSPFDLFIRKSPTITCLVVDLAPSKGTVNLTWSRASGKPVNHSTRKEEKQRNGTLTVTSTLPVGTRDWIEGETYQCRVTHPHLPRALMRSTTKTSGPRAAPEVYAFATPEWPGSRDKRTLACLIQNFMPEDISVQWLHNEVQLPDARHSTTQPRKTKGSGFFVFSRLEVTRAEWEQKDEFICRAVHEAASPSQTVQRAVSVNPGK

The assay addresses mixture of three Der p 2 specific recombinant human IgE clones H10, H12, P4E (human) (UniProt P01854). Description: RBL-SX38 IgE displacement, FACS.
With B1, the EC50 came to 3.7 nM and the Max effect/effect 1 µM was found to be 98%.
For B2 the same measures were 8.7 nM and 97%.
For B3, in that order: 4.8 nM and 94%.
For B4, the EC50 was 7.1 nM and the Max effect/effect 1 µM is 96%.
Consider B5, for which the EC50 amounted to 39 nM and the Max effect/effect 1 µM was 99%.
For B6, in that order: 126 nM and 95%.
For B7 the same measures were 28.8 nM and 99%.
With B8, the Max effect/effect 1 µM came out at 9%.

The values are drawn from patent US20250171562A1.
